Measured values reported in the nanobody polyreactivity screen of Harvey et al. (2022).

Test: yeast display, Sf9 membrane polyspecificity reagent, FACS + sequencing; frameworks hold sequencing errors
How it was run: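 A nanobody's polyreactivity label depends on the gate it was sorted from. Yeast display cells were stained with 10% biotinylated, detergent-solubilized Sf9 membrane reagent for 1 hour at 4 °C, enriched on streptavidin microbeads and sorted by FACS. The low and high (top ~1%) gates were set on anti-HA fluorescence for expression and streptavidin fluorescence for reagent binding.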

| Sequence | polyreactivity (PSR sort gate) |
| --- | --- |
| QVQLVESGGGLVQAGGSLRLSWAASGSIFGLNALGWYRQAPGKERELVADITSGGGNTYSADSVKGRFTISRDNAKNTVYLQMNSLKPEDTAVYYCNADYDLYFSGWYDYWGQGTQVTVSS | low polyreactivity |
| QVQLVESGGGLVQAGGSLRLSCAASGLTLTYYPMGLYRQAPGKERELVAAISSSGGSTYYADSVKGRFTISRDNAKNTVYLQMNSLKPEDSAVYDCAATRVSWTGRDDYWGQGTQVTVSS | high polyreactivity |
| QVQLVESGGGLVQAGGSLRLSCAASGSTFAYYTMGWYREAPGKERELVAAISKSGGSTTYADSVKGRFTISRDNAKNTVYLQMNSLKPEDTAVYYCAAYDRVENYNYWGQGTQVTVSS | high polyreactivity |
| QVQLVESGGGLVQAGGSLRLSCAACGRIFGYYAMGWYRQAPGKERELVAAITGVGRTNYADSVKGRFTISRDNAKNTVYLQMNSLKPEDTAVYYCNVVRVYRYDYWGQGTQVTVSS | high polyreactivity |
| HFQREESGGGLVQAGGSLRLTCAASGSTFGPYVMGWYRQARGKERELVAAISDTTGNTYYADSVKGRFTLSRDNAKNTVYLQMNSLKPEDTAVYYCNVDWYWGDYDYRGQGTQVTVSS | low polyreactivity |
| QVQLVESGGGLVQAGGSLRLSCAASGFTFPYYAMGWYRPAPGKERELVAAISRNGGSTYYADSVKGRFTISRDNAKNTVYFQMNRLKPEDTAVYYCNKKWLGWADPSLDKRYDYWGQGTQVTVSS | high polyreactivity |
| QDQLVESGGGLVQAGGSLRLSCAASGGIFLGNAMGWYRQAPGKERELVAAISFSGGSTYYADSVKGRFTISRDNAKNTVYLQMNSLKPEDTAVYYCAAAWNRGKYNYYYWGQGTQVTVSS | high polyreactivity |
| QVQLVESGGGLVQAGGSLRLSCAASGRIFIRNAMGWYRQAPGKERELVAAITSDGGSTDYADSVKGRFTISRDNAKNTVYLQMNSLIPEDTAVYYCAATGSGYDYWGQGTQVTVSS | low polyreactivity |
| QVQLVESGGGLVQAGGSLRLSCAASGRIFKSYAMGWYRQAPGKERELVATISISGGSTYYADSVKGRFTISRDNAKNTVYLQMNSLKPEDTAVYYCAADRYGLGDYDYWGQGTQVTVSS | low polyreactivity |
| QVQLVESGGGLVQAGGRLRLSCAASGSTFATYTMGWYRQPPGKERELVAAISVSGSRTYYADSVKGRFSISRDNAKNTVYLQMNSLKPEDTAVYYCAAANHKGSRMDYWGPGTQVTVSS | high polyreactivity |
| QVQLVESGGGLVQAGGSLRLSCAASGSTFNRYAMGWYRQAPGKERELVAAISSGGTTYYADSVKGRFTSSRDNAKNTVYLQMNSLKPEDTAVYYCNARKYGWVQRIIIYDYWGQGTQVTVSS | high polyreactivity |
| QVQLVESGGGLVQAGGSLRLSCAASGSTFFSNAMGWYRQAPGKERELVATIRFGGGSTYADSVKGRFTISRDNAKNTVYLQMNSLIPEDTAVYYCAADDSDKRYTRSWYGYWGQGTQVTVSS | low polyreactivity |
| QVQLVESGGGLVQAGGSLRLSCAASGFIFGVYAKGWYRQAPGKERELVAAISGSGVRTYYADSVKGRFTISRDNAKNTLYLQMNSLKPEDTAVYYCAARRGFVRPYNYWGQGTQVTVSS | high polyreactivity |
| QVQLVESGGGLVQAGGSLRLSCAASGFTFLPYVMGWYRQAPGKERELVAAMSSSGGSTYYADSVKGRFTISRDNAKNTVYLQMNSLKPEDTAVYYCAKDIGVRRRDFEDYEYWGQGTQVTVSS | low polyreactivity |
| QVQLVESGGGLVQAGGSLRLSCAASGRILSTYARGWYRQAPGKETELVAAITRTSGSTYYADSVKGRFTISRDNAKNTVYLQMNSLKPEDTAVDYCAADTWLITWSGQYNSWGQGTQVTVSS | low polyreactivity |
| QVQLVESGGGLVQAGGSLRLSCAASGGIFGYYVMGWYRQAPGKERELVAAITSGGGTNYADSVKGRFTISRDNAKNTVYLQMNSLKPEDTAVYYCAAVYVRHRFGRFGYWGQGTQVTVSS | low polyreactivity |
| QVQLVESAGGLVQAGGSLRLSCAASGSILYKNAMGWYRQAPGKERELVAAIRSGGSTYYADSVKGRFTISRDNAINTVYLQMNSLKPEDTAVYYCYARTFSHGRYDYWGQGTQVTVSS | low polyreactivity |
| QVQLVQSGGCLVQAGGSLRLSCAASGRIFGYYAIGWYRQAPGKERELVAGISRSGGSTYYADSVKWRFTISRDKAKNTVYLQMNSLKPEDTAVYYCAARFNGQTYYYWGQGTQGTVSS | high polyreactivity |
| QVQLVESGGGLVQAGGSLRLSCAASGRIFAPYAMGWYRQAPGKERELVAAITSGGSTNYADSVKGRFTISRDNAKNTVYLQMNSLKPEDTAVYYCAAEASYNYGKYVVTYDYWGQGTQVTVSS | high polyreactivity |
| QVQLVESGGGLVQAGGSLRLICAASGFTFSKYGMVWYRQAPGKERELVAAISGSGGNTYYADSVKGRFTISRDNAKNTVYLLINSLKPEDTAVYYCNATWELLSYYYLFWGYDYWGQGTQVTVSS | low polyreactivity |
| QVQLVESGGGLVQAGGSLRLSCAASGITFRSNAMGWYRQAPGKERELVATISYRGASTYYADSVKGRFTISRDNAKNTVYLQMNSLKPEYTSVYYCNVRNRYWRSRVDYWGQGTQVTVSS | high polyreactivity |
| QVQLVESGGGLVQGGSLRLSCAATGFTFPIYVMAWYRQAPGKERQLVDSISSVGSTNYADSVKGRFTISRDNAKNTVYLQMNSMKPEDTAVYYCNADAPNSYGGFDYWGQGTQVTVSS | low polyreactivity |

| Sequence | polyreactivity (PSR sort gate) |
| --- | --- |
| QAELVESGGGLVQAGGSLRLSCAASGFTFTAYPMGWYRQAPGKERELVAAISYRGGRTNYAYSVKGRFTISRDNAKNTVYLQMNRLKPEDTAVYYCAARPRISTREMDYWGQGTQVTVSS | high polyreactivity |
| QVQLVESGGGLVQAGGSLRLSCAASGSIFFSYAMGWYRQAPGKERELVASISSGVSTNYADSEKGRFTISRDNAKNTVYLQMNSLKPEDTAVYYFAAYYRGWSSSYWYPAYNYWGQGTQVTVSS | low polyreactivity |
| QVQLVESGGGLVQAGGSLRLSCAASGRTFPWYTMGWYRQAPGKERELVAAISWSGGSTFYADSVKGRFTISRDNAKNTVYLQMNSLKPEDTAVYYCAARSRPTVQRGYAYGYWGQGTQVTVSS | low polyreactivity |
| QVQLVESGGGLVQAGGSLRLSCAASGITFVRYAMAWYRQAPGKEREFVAAINSIVGRTYYADSVKGRFTISRDNAKNTVYLQMNSLKPEDTAVYYCAADSNVRFGMDYWGQGTQVTVSS | low polyreactivity |
| QVQLVESGGGLVQAGGSLRLSCAASGSTFWRYAMGWYRQAPGKERELVAAISRSGGSTYYADSVKGRFTISRDNAKNTVYLQMNSLKPEDTAVYYCAAQYGGKYKLYSDSYAMDYWGQGTQVTVSS | high polyreactivity |
| QVQLVESGGGLVQAGGSLRLSCAASGSIFDNNAMGWYRQAPGKERELVAVITRSGGSTHYADSVKGRFTISRDNAKNTVYLQMNSLKPEDTAVYYCATDGLFYVDGSWTLGYWGQGTQVTVSS | low polyreactivity |
| QVQLVESGGGLVQAGGSLRLSCAASGRIFDLYTMGWYRQATGKERELVAAIRWSDGSTYYADSVKGRFTISRDNAKNSVYLQMNSLKPVDTAVYYCAADTRTSYYNDDYDYWGQGTQVTVSS | low polyreactivity |
| QVQLVESGVGLVQAGGSLRLSCAASGLIFRPYTMGWDRQAPGKERELVATITGSGASTNYADSVKGRFTISRDNAKNTLYLQMNSLKPEDTAVYYCKGRSYSRMYYWGQGTQVTVSS | high polyreactivity |
| QVQLVESGGGLVQAGGSLRLSCAASGRIFGSYAMGWYRQAPGKERELVAAISWNGGSRYYADSVKGRFTISRDNAKNTVYLQMNSLKPEDTAVYYCAVVYRAYRSTAYLYGYWGQGTQVTVSS | high polyreactivity |
| QVQLVESGGGLVQAGGSLRLSCAASGFTSNYYAMGGYRQAAGKERELVAAITTGGSTHYADSVQGRFTISRDNAKNTVYVQMNSLKPEDTAVYYCAADLKDTRLFPWFCEYDYWGQGTQVTVSS | low polyreactivity |
| QGQLVESGGGLVQAGGRLRLSCAASGRIFPNNAMGWYRQAPGKERELVAAISRSGGRTYYADSVKGRFTISRDNAKNTVYLQMNSLKPEDTAVYYCAARSWGGYDSRGYWGQGTQVTVSS | high polyreactivity |
| QVQLVESGGGLVQAGGSLRLSCAASGYIFGGNTLGWYRQAPGKERELVAAISYSGTSTYYADSVKGRFTISRDNAKNTVYLQMNSLKPEDTAVYYCAARERWYGSYYWGQGTQVTVSS | high polyreactivity |
| QVQLQESGRGLVQAGGSLRLSCAASGTISQEDWMGWYRQAPGKEREFVAAIGLGSNTNYADSLKGRFTISRDNAKNTVYLQMNSLKPEDTAVYYCAVSVWQYSDHVYRGQGTQVTVSS | low polyreactivity |
| QVQLVESGGGLVQAGGSLRLSCAASGLIFTDNTRGWYRQAPGKEREFVADISSSGGITYYADSVKGRFTFSRDNAKNTVYLQMNSLKPEDTAVYYCNAERGYDYLDGYPFFIYDYWGQGTQVTVSS | low polyreactivity |
| QVQLVESGGGLVQAGGSLRLSCAASGSTFIKNAMGWYRQAPGKERELVAAINNSGSRTYYADSVKGRFTISRDNAKNTVYLQMNSLKPEDTAVYYCAAGRTYGMGYWGQGTQVTVSS | high polyreactivity |
| QVQLVESCGCLVQAGGSLRFSCAASGNTFRRNVMGWYRQAPGKEREMVAAINRGGSTTYADSVKGRFTISRDNAKNTVYLQMNSLKPEDTAVYYFNDRTLFKWRHGHYYAYDYWGQGTQVTVSS | high polyreactivity |
| QVQLVESGGGLVQAGGSLRLSCAASGYTFRTNVMGWYRQAPGKERELVATINWRGGSTYYADSVKGRFTISRDNAKNTVYLQMNSLKPEDTAVYYCAKTYRYYRTMDYWGQGTQVTVSS | low polyreactivity |
| QVQLVESGGGLVQAGGSLRLSCASSGFIFPLYAMGWYRQAPGKERELVAAINWRGGTTYYADSVKGRFTISRDNAKNTVYLQINSLKPDDTAVYYCAATHWAYSRVPYDYWGQGTQVSVSS | high polyreactivity |
| QVQLVESGGGLVQAGGSLRLSCAASGRTLGDYGMGWYRQAPGKETQLVAVITSGGSPYYADSVKGRFTISRDNAKNTVYLQMNSLKPEDNAVYFCNARHPYYTVQTGGYDYWGQGTQVTVSS | low polyreactivity |
| QVQLVESGGGLVQAGGSLRLSCAASGYTFNYYAMGWSRQAPGKEREFVASTYADSVKGRFTISRDNAKNTVYLQMNSLKPEDTAVYYCAAEGSYPAYDYWGQGTQVTVSS | low polyreactivity |
| QVQLVESGGGLVQAGGSLRLSCAASGGTIVGYAMGWYRQAPGKERELVAAIDSSGGSTYYADSVKGRFTISRDNAKNTVYLQMNSLKPEDTAVYYCAALSTNYYISPYYYYNSKGYDYWGQGTQVTVSS | high polyreactivity |
